Measured values reported in patent US20140271651A1 (AbbVie / Abbott, published 2014).

Molecular target: T1, GP73-hFc (human GP73 amino acids 63 to 400 fused at the C-terminus to human IgG1 Fc) (human)
T1 construct: Expressed in HEK293F, CHO or HepG2 cells; the host is named under assay; also called HEK expressed GP73-hFc; CHO expressed GP73-hFc
T1 chain: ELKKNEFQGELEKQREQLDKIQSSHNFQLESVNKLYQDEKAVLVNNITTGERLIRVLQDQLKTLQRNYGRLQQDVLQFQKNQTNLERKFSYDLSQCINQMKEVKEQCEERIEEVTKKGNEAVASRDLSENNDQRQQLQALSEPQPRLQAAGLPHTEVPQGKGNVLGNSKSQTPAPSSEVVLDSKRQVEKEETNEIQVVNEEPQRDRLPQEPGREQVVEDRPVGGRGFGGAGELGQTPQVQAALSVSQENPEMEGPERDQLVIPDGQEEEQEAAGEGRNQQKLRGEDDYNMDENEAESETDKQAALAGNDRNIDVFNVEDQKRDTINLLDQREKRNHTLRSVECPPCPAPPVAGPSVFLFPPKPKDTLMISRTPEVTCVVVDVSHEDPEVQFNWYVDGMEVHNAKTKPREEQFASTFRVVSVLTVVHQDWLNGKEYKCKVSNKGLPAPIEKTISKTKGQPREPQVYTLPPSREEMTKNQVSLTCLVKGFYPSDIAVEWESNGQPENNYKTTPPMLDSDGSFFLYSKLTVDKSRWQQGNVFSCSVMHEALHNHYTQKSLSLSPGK
Test: SPR Biacore 2000, mAb captured on rabbit anti-mouse IgG, HEK GP73-hFc analyte 0.412-100 nM, 1:1 fit; standard error 2 × 10^-5, larger than the value; dissociation hardly resolved
Protocol: First, an approximately 13,000-15,000 RU rabbit anti-mouse IgG Capture Biosensor was created by amine-coupling rabbit anti-mouse IgG antibody (GE Healthcare) to a CM5 biosensor chip (GE Healthcare) via EDC/NHS/ethanolamine chemistry provided in an Amine Coupling Kit (GE Healthcare) after pre-treating the biosensor with duplicate injections of 100 mM HCl, 50 mM NaOH, and 0.1% SDS. Purified GP73 antibody and antigen (HEK GP73-hFc) were diluted into a running buffer (hereinafter “running buffer”) composed of HBS-EP buffer (GE Healthcare) supplemented with 0.1% BSA and 0.1% CM-Dextran. Each GP73 antibody was diluted to 1 μg/mL. The GP73-hFc antigen was diluted to concentrations of 0.412 to 100 nM using a 3-fold dilution series assuming an oligomeric molecular weight of 490 kDa (Abbott Laboratories).
The GP73-hFc antigen program was as follows. After equilibrating the rabbit anti-mouse IgG Capture Biosensor for 3 min at 5 μL/minute with running buffer, GP73 antibody (7-14 μL) was injected over individual flow cells with one flow cell being left blank as a reference flow cell. […] The binding kinetics (association and dissociation) were monitored via sensorgrams during antigen injection and running buffer re-equilibration. […] Standard errors of determined values are reported in parentheses with respect to the smallest number place value.

koff: ≤ 1e-05 s⁻¹
B1: anti-GP73 monoclonal antibody 1B-4971 (antibody, V domains shown)
VH: QVQLQQSGPALVKPGASVKMSCKASGYTFTNYVIHWVKQKPGQGLERIGYIWPYNDGTKFNEKFKGKATLTSDKSSSTAYMELSSLTSEDSAVYYCSSQQLAYWGQGTTLTVSS
VL: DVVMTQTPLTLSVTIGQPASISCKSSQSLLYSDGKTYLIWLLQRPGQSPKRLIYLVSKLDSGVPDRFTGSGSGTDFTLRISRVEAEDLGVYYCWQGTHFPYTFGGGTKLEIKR
notes: Biotin labelled in some assays; also called mAb 1B-4971; 1B-4971-Bt
